Data set [1] has as its system HeLa Kyoto. Kind of data set: solubility in G1/S (NP-40 vs SDS abundance) (log2 ratio); higher = more soluble. Particulars: cell cycle stage: G1/S.
For data set [2], the system named is HeLa Kyoto. Kind of data set: thermal stability score vs G1/S (z-score of summed log2 fold changes over temperatures); higher = more thermally stable than in G1/S.
The subject of data set [3] is HeLa Kyoto. Kind of data set: solubility change mitosis vs G1/S (difference of NP-40 vs SDS log2 ratios) (log2 ratio difference); higher = more soluble in mitosis.
The subject of data set [4] is HeLa Kyoto. Description: melting temperature (median over replicates), in situ; higher = more thermally stable.
Where [5] appears, read: cell cycle stage: early G1 (4.5 h after nocodazole release).
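For melting temperature (median over replicates), in situ in this document: HeLa Kyoto cells synchronized by double thymidine or nocodazole block, proteins quantified by TMT10plex mass spectrometry, three independent biological replicates.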
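For solubility change mitosis vs G1/S (difference of NP-40 vs SDS log2 ratios) in this document: synchronized HeLa Kyoto cells (double thymidine block for G1/S, nocodazole release for mitosis), protein amounts in NP-40 versus SDS lysates quantified by mass spectrometry, three biological replicates.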
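For solubility in G1/S (NP-40 vs SDS abundance) in this document: HeLa Kyoto cells arrested at G1/S by double thymidine block, proteins quantified by TMT10plex mass spectrometry in mild NP-40 versus SDS extracts, three biological replicates.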
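For thermal stability score vs G1/S (z-score of summed log2 fold changes over temperatures) in this document: synchronized HeLa Kyoto cells, proteins quantified by TMT10plex mass spectrometry, three biological replicates, mitosis taken 0.5 h after nocodazole release, G1/S directly after double thymidine block.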

Take “MSVVGIDLGFQSCYVAVARAGGIETIANEYSDRCTPACISFGPKNRSIGAAAKSQVISNAKNTVQGFKRFHGRAFSDPFVEAEKSNLAYDIVQLPTGLTGIKVTYMEEERNFTTEQVTAMLLSKLKETAESVLKKPVVDCVVSVPCFYTDAERRSVMDATQIAGLNCLRLMNETTAVALAYGIYKQDLPALEEKPRNVVFVDMGHSAYQVSVCAFNRGKLKVLATAFDTTLGGRKFDEVLVNHFCEEFGKKYKLDIKSKIRALLRLSQECEKLKKLMSANASDLPLSIECFMNDVDVSGTMNRGKFLEMCNDLLARVEPPLRSVLEQTKLKKEDIYAVEIVGGATRIPAVKEKISKFFGKELSTTLNADEAVTRGCALQCAILSPAFKVREFSITDVVPYPISLRWNSPAEEGSSDCEVFSKNHAAPFSKVLTFYRKEPFTLEAYYSSPQDLPYPDPAIAQFSVQKVTPQSDGSSSKVKVKVRVNVHGIFSVSSASLVEVHKSEENEEPMETDQNAKEEEKMQVDQEEPHVEEQQQQTPAENKAESEEMETSQAGSKDKKMDQPPQAKKAKVKTSTVDLPIENQLLWQIDREMLNLYIENEGKMIMQDKLEKERNDAKNAVEEYVYEMRDKLSGEYEKFVSEDDRNSFTLKLEDTENWLYEDGEDQPKQVYVDKLAELKNLGQPIKIRFQESEERPKLFEELGKQIQQYMKIISSFKNKEDQYDHLDAADMTKVEKSTNEAMEWMNNKLNLQNKQSLTMDPVVKSKEIEAKIKELTSTCSPIISKPKPKVEPPKEEQKNAEQNGPVDGQGDNPGPQAAEQGTDTAVPSDSDKKLPEMDID [HSPA4]”: the “solubility in G1/S (log2)” value with HeLa Kyoto [1] came to 0.198. In addition, the values for the thermal stability score in the data set with HeLa Kyoto [2] (setting [5]) and in the data set on HeLa Kyoto [2] (cell cycle stage: mitosis) were 0.436 and 1.85, respectively. Besides, the “solubility change mitosis (log2)” value in the data set on HeLa Kyoto [3] was -0.0794. The melting temperature came out at 51.3 °C with HeLa Kyoto [4] (cell cycle stage: G1/S) and 51.1 °C in the data set on HeLa Kyoto [4] (cell cycle stage: mitosis).
On to “MAETEERSLDNFFAKRDKKKKKERSNRAASAAGAAGSAGGSSGAAGAAGGGAGAGTRPGDGGTASAGAAGPGAATKAVTKDEDEWKELEQKEVDYSGLRVQAMQISSEKEEDDNEKRQDPGDNWEEGGGGGGGMEKSSGPWNKTAPVQAPPAPVIVTETPEPAMTSGVYRPPGARLTTTRKTPQGPPEIYSDTQFPSLQSTAKHVESRKDKEMEKSFEVVRHKNRGRDEVSKNQALKLQLDNQYAVLENQKSSHSQYN [CDV3]”, for which the “solubility in G1/S (log2)” value in the data set on HeLa Kyoto [1] was -0.0527. Besides, the thermal stability score in the data set with HeLa Kyoto [2] (setting [5]) was -2.3; with HeLa Kyoto [2] (cell cycle stage: mitosis), -4.45. Also, the “solubility change mitosis (log2)” value with HeLa Kyoto [3] came out at 0.0994. The melting temperature with HeLa Kyoto [4] (cell cycle stage: G1/S) came out at 57.2 °C; with HeLa Kyoto [4] (cell cycle stage: mitosis), 53.4 °C.
As to “MAGPGPGPGDPDEQYDFLFKLVLVGDASVGKTCVVQRFKTGAFSERQGSTIGVDFTMKTLEIQGKRVKLQIWDTAGQERFRTITQSYYRSANGAILAYDITKRSSFLSVPHWIEDVRKYAGSNIVQLLIGNKSDLSELREVSLAEAQSLAEHYDILCAIETSAKDSSNVEEAFLRVATELIMRHGGPLFSEKSPDHIQLNSKDIGEGWGCGC [RAB43]”, the “solubility in G1/S (log2)” value in the data set on HeLa Kyoto [1] was -0.224. Moreover, the thermal stability score in the data set with HeLa Kyoto [2] (setting [5]) was -0.0567; in the data set on HeLa Kyoto [2] (cell cycle stage: mitosis), 0.366. In addition, the “solubility change mitosis (log2)” value in the data set with HeLa Kyoto [3] stood at 0.296. Further, the melting temperature in the data set with HeLa Kyoto [4] (cell cycle stage: G1/S) was 55.1 °C; with HeLa Kyoto [4] (cell cycle stage: mitosis) it was 54.6 °C.
For the sequence “MSAEVETSEGVDESEKKNSGALEKENQMRMADLSELLKEGTKEAHDRAENTQFVKDFLKGNIKKELFKLATTALYFTYSALEEEMERNKDHPAFAPLYFPMELHRKEALTKDMEYFFGENWEEQVQCPKAAQKYVERIHYIGQNEPELLVAHAYTRYMGDLSGGQVLKKVAQRALKLPSTGEGTQFYLFENVDNAQQFKQLYRARMNALDLNMKTKERIVEEANKAFEYNMQIFNELDQAGSTLARETLEDGFPVHDGKGDMRKCPFYAAEQDKGALEGSSCPFRTAMAVLRKPSLQFILAAGVALAAGLLAWYYM [HMOX2]”, the “solubility in G1/S (log2)” value in the data set on HeLa Kyoto [1] came to 0.427. For the same sequence, the figures for the thermal stability score with HeLa Kyoto [2] (setting [5]) and in the data set on HeLa Kyoto [2] (cell cycle stage: mitosis) were 0.884 and 1.97, respectively. The “solubility change mitosis (log2)” value with HeLa Kyoto [3] was 0.0224. Further, the melting temperature came out at 49.4 °C in the data set with HeLa Kyoto [4] (cell cycle stage: G1/S) and 51 °C in the data set with HeLa Kyoto [4] (cell cycle stage: mitosis).
Turning to “MSLKNEPRVNTSALQKIAADMSNIIENLDTRELHFEGEEVDYDVSPSDPKIQEVYIPFSAIYNTQGFKEPNIQTYLSGCPIKAQVLEVERFTSTTRVPSINLYTIELTHGEFKWQVKRKFKHFQEFHRELLKYKAFIRIPIPTRRHTFRRQNVREEPREMPSLPRSSENMIREEQFLGRRKQLEDYLTKILKMPMYRNYHATTEFLDISQLSFIHDLGPKGIEGMIMKRSGGHRIPGLNCCGQGRACYRWSKRWLIVKDSFLLYMKPDSGAIAFVLLVDKEFKIKVGKKETETKYGIRIDNLSRTLILKCNSYRHARWWGGAIEEFIQKHGTNFLKDHRFGSYAAIQENALAKWYVNAKGYFEDVANAMEEANEEIFITDWWLSPEIFLKRPVVEGNRWRLDCILKRKAQQGVRIFIMLYKEVELALGINSEYTKRTLMRLHPNIKVMRHPDHVSSTVYLWAHHEKLVIIDQSVAFVGGIDLAYGRWDDNEHRLTDVGSVKRVTSGPSLGSLPPAAMESMESLRLKDKNEPVQNLPIQKSIDDVDSKLKGIGKPRKFSKFSLYKQLHRHHLHDADSISSIDSTSSYFNHYRSHHNLIHGLKPHFKLFHPSSESEQGLTRPHADTGSIRSLQTGVGELHGETRFWHGKDYCNFVFKDWVQLDKPFADFIDRYSTPRMPWHDIASAVHGKAARDVARHFIQRWNFTKIMKSKYRSLSYPFLLPKSQTTAHELRYQVPGSVHANVQLLRSAADWSAGIKYHEESIHAAYVHVIENSRHYIYIENQFFISCADDKVVFNKIGDAIAQRILKAHRENQKYRVYVVIPLLPGFEGDISTGGGNALQAIMHFNYRTMCRGENSILGQLKAELGNQWINYISFCGLRTHAELEGNLVTELIYVHSKLLIADDNTVIIGSANINDRSMLGKRDSEMAVIVQDTETVPSVMDGKEYQAGRFARGLRLQCFRVVLGYLDDPSEDIQDPVSDKFFKEVWVSTAARNATIYDKVFRCLPNDEVHNLIQLRDFINKPVLAKEDPIRAEEELKKIRGFLVQFPFYFLSEESLLPSVGTKEAIVPMEVWT [PLD1]”, in the data set with HeLa Kyoto [1], the “solubility in G1/S (log2)” value was -0.336. Besides, the thermal stability score in the data set on HeLa Kyoto [2] (setting [5]) was -0.632; in the data set on HeLa Kyoto [2] (cell cycle stage: mitosis), -0.457. Also, the “solubility change mitosis (log2)” value in the data set with HeLa Kyoto [3] was -0.0809. In addition, the melting temperature turned out to be 51.6 °C in the data set with HeLa Kyoto [4] (cell cycle stage: G1/S) and 51.7 °C in the data set with HeLa Kyoto [4] (cell cycle stage: mitosis).

The record behind these values is the supplement of paper PMC5998384.
